B1: Forkhead box protein P3 (Homo sapiens), Q9BZS1 (parent)
chain: MPNPRPGKPSAPSLALGPSPGASPSWRAAPKASDLLGARGPGGTFQGRDLRGGAHASSSSLNPMPPSQLQLPTLPLVMVAPSGARLGPLPHLQALLQDRPHFMHQLSTVDAHARTPVLQVHPLESPAMISLTPPTTATGVFSLKARPGLPPGINVASLEWVSREPALLCTFPNPSAPRKDSTLSAVPQSSYPLLANGVCKWPGCEKVFEEPEDFLKHCQADHLLDEKGRAQCLLQREMVQSLEQQLVLEKEKLSAMQAHLAGKMALTKASSVASSDKGSCCIVAAGSQGPVVPAWSGPREAPDSLFAVRRHLWGSHGNSTFPEFLHNMDYFKFHNMRPPFTYATLIRWAILEAPEKQRTLNEIYHWFTRMFAFFRNHPATWKNAIRHNLSLHKCFVRVESEKGAVWTVDELEFRKKRSQRPSRCSNPTPGP

Variants of: B1
Conditions: with ezh2_human EZH2, Q15910
ezh2_human EZH2, Q15910, sequence (Q15910 whole entry, looked up): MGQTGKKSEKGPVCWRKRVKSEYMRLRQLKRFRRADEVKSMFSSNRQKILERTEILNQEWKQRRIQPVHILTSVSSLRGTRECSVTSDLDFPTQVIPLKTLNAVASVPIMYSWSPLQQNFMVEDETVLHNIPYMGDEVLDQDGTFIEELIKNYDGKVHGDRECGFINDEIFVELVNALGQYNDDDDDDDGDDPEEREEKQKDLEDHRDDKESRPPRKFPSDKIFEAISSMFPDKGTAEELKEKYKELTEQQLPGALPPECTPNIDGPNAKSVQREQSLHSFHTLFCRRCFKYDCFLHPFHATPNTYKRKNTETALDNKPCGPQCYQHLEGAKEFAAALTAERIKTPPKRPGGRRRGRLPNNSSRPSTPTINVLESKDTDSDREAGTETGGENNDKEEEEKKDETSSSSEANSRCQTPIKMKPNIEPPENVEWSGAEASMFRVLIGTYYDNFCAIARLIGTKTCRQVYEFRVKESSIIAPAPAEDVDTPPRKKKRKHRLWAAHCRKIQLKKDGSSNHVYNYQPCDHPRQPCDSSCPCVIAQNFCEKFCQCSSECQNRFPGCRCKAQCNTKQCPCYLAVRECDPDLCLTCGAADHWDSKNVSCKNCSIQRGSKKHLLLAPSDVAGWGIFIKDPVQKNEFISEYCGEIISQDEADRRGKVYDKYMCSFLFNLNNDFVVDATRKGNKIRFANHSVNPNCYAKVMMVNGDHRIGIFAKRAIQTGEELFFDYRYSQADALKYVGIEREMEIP

| effect of a mutation on the interaction | Variant |
| --- | --- |
| decreasing interaction | MPNPRPGKPSAPSLALGPSPGASPSWRAAPKASDLLGARGPGGTFQGRDLRGGAHASSSSLNPMPPSQLQLPTLPLVMVAPSGARLGPLPHLQALLQDRPHFMHQLSTVDAHARTPVLQVHPLESPAMISLTPPTTATGVFSLKARPGLPPGINVASLEWVSREPALLCTFPNPSAPRKDSTLSAVPQSSYPLLANGVCKWPGCEKVFEEPEDFLKHCQADHLLDEKGRAQGLLQREMVQSLEQQLVLEKEKLSAMQAHLAGKMALTKASSVASSDKGSCCIVAAGSQGPVVPAWSGPREAPDSLFAVRRHLWGSHGNSTFPEFLHNMDYFKFHNMRPPFTYATLIRWAILEAPEKQRTLNEIYHWFTRMFAFFRNHPATWKNAIRHNLSLHKCFVRVESEKGAVWTVDELEFRKKRSQRPSRCSNPTPGP [C232G] |

From IntAct's records for PubMed 30510991
